Among the data in publication PMC3226482 (Molecular Biology of the Cell, 2011) are Kd values, retold here.

This assay has as its target T1, karyopherin β2 (human, UniProt Q92973 1-898).
T1 sequence: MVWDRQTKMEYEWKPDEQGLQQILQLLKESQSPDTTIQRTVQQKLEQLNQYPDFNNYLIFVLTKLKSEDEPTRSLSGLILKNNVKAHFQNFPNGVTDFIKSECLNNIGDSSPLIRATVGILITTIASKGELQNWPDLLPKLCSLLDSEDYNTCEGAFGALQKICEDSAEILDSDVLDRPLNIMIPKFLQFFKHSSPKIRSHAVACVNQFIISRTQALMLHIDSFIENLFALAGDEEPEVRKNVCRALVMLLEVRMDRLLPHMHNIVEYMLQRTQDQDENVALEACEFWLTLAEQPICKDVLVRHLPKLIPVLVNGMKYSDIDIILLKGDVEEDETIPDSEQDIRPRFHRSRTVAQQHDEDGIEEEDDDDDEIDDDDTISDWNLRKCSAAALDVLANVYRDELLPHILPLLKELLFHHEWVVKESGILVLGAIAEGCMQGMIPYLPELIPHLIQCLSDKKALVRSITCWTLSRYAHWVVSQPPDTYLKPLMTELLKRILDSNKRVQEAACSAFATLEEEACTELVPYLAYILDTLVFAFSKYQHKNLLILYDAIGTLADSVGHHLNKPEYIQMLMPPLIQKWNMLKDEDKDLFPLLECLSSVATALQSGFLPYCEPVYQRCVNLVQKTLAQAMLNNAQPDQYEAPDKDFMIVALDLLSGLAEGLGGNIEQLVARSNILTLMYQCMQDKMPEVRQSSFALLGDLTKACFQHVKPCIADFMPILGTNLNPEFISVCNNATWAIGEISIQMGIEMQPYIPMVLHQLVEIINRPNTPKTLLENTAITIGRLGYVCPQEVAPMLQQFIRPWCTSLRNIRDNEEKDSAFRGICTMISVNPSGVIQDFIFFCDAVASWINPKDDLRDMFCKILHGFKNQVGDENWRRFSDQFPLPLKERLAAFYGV
The assay is described as follows: ITC.

B1: hsNXF1 fragment, residues 1-92 (domain or fragment)
chain: MADEGKSYSEHDDERVNFPQRKKKGRGPFRWKYGEGNRRSGRGGSGIRSSRLEEDDGDVAMSDAQDGPRVRYNPYTTRPNRRGDTWHDRDRI
B1: binding was characterised by a dissociation constant (Kd) of 54 nM.
